Assay [1] addresses T1, human transferrin receptor 1 (hTfR1) on cell surfaces (human, UniProt P02786 1-760).
T1 construct: Endogenous receptor on hCMEC/D3, THP-1, K562 and Ramos cells; also called CD71; endogenous hTfR1
Nature of the assay: flow cytometry on Ramos cells (hTfR1 on the surface), Fc receptors blocked, overnight at 4 °C, detection with anti-human IgG-Alexa Fluor 488. On the procedure:
(§1) Binding to hTfR1 on cells was measured on the immortalized human B lymphocyte cell line Ramos (Sigma, cat: 85030802). This cell line is known for expressing high levels of hTfR1 on the cell surface. Fcγ receptors were blocked using Fc receptor blocker (Innovex biosciences, #NB309-4X-40) for 30 min at 4° C., after which the cells were washed in PBS. The cells were seeded in a 96 well V bottom plate (#249570, Thermo Scientific Nunc), and serially diluted Gen 2A constructs were added and the plate was incubated at 4° C. overnight. The cells were washed with PBS with 1% BSA and then fixed with freshly prepared 4% formaldehyde (Thermo Scientific Pierce, #28906) diluted in PBS for 15 min at room temperature. The cells were washed with PBS containing 1% BSA, and then stained. […] Staining was carried out for 30 min at 4° C. After incubation with the detection reagent, cells were washed with PBS containing 1% BSA. The cells were finally resuspended in 200 μl PBS with 1% BSA and acquired using a BD FACSLyric flow cytometer system (BD Biosciences). Samples were analyzed using flowJo software (BD Biosciences).
(A flow cytometer gives signals particle by particle.)

Assay [2] addresses T1, human transferrin receptor 1 (hTfR1) on …. The assay is described as follows: flow cytometry, Ramos cells. On the procedure: as §1

T1 sequence (P02786 whole entry): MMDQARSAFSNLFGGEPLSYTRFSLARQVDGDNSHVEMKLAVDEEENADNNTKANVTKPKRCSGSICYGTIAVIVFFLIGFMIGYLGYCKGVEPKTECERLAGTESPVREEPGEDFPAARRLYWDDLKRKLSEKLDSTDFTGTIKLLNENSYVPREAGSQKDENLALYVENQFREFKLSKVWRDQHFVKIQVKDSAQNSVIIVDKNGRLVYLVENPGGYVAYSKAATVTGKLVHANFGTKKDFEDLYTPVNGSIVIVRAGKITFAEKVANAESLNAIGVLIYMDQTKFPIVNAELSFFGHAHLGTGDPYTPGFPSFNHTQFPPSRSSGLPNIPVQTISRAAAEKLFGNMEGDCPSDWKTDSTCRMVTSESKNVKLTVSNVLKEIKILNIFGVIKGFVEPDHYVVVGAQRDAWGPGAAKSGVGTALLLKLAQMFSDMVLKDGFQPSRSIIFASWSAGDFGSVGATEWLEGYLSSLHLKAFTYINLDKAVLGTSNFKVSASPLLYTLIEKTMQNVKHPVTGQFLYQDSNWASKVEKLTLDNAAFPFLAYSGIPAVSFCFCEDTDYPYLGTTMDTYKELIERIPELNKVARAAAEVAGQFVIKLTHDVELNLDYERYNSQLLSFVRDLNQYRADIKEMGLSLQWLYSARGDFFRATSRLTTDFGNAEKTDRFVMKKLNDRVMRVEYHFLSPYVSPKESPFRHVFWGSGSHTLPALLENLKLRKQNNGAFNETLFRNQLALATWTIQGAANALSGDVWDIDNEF

B1: 2A-3 #14 (bispecific antibody, human IgG1, kappa)
heavy: not shown
chain: DIVMTQAPLSLPVSLGDQASISCRSSQSIVHSNGNTYLEWYLQKPGQSPKLLIYKVSNRFSGVPDRFSGSGSGTDFTLKISRVEAEDLGIYYCFQGSHVPPTFGGGTKLEIKRTVAAPSVFIFPPSDEQLKSGTASVVCLLNNFYPREAKVQWKVDNALQSGNSQESVTEQDSKDSTYSLSSTLTLSKADYEKHKVYACEVTHQGLSSPVTKSFNRGECGGGGSGGGGSGGGGSGGGGSGGGGSDIQMTQSPSSVSASVGDRVTITCKSSQSLLYSTNQKNYLAWYQQKPGKAPKLLIYWASTRESGVPSRFSGSGSGTDFTLTISSLQPEDFATYYCQQYFIYPRTFGQGTKVEIKGGGGSGGGGSGGGGSEVQLVQSGAEVKKPGSSVKVSCKASGYIFTDYNMDWVRQAPGQGLEWIGDINPDADTTSYNEKFKGRATLTVDKSTSTAYMELSSLRSEDTAVYYCARGGYSGSSYYHPMDYWGQGTLVTVSSGGGGSGGGGSGGGGSGGGGSGGGGSDIVMTQAPLSLPVSLGDQASISCRSSQSIVHSNGNTYLEWYLQKPGQSPKLLIYKVSNRFSGVPDRFSGSGSGTDFTLKISRVEAEDLGIYYCFQGSHVPPTFGGGTKLEIKRTVAAPSVFIFPPSDEQLKSGTASVVCLLNNFYPREAKVQWKVDNALQSGNSQESVTEQDSKDSTYSLSSTLTLSKADYEKHKVYACEVTHQGLSSPVTKSFNRGEC
notes: also called Gen 2A construct #14; VL first
For B1, the binding result in assay [1] is reported as “binds”.

B2: 2A-3 #6 (bispecific antibody, human IgG1, kappa)
heavy: not shown
chain: DIVMTQAPLSLPVSLGDQASISCRSSQSIVHSNGNTYLEWYLQKPGQSPKLLIYKVSNRFSGVPDRFSGSGSGTDFTLKISRVEAEDLGIYYCFQGSHVPPTFGGGTKLEIKRTVAAPSVFIFPPSDEQLKSGTASVVCLLNNFYPREAKVQWKVDNALQSGNSQESVTEQDSKDSTYSLSSTLTLSKADYEKHKVYACEVTHQGLSSPVTKSFNRGECGGGGSGGGGSGGGGSEVQLVQSGAEVKKPGSSVKVSCKASGYIFTDYNMDWVRQAPGQGLEWIGDINPDADTTSYNEKFKGRATLTVDKSTSTAYMELSSLRSEDTAVYYCARGGYSGSSYYHPMDYWGQGTLVTVSSGGGGSGGGGSGGGGSDIQMTQSPSSVSASVGDRVTITCKSSQSLLYSTNQKNYLAWYQQKPGKAPKLLIYWASTRESGVPSRFSGSGSGTDFTLTISSLQPEDFATYYCQQYFIYPRTFGQGTKVEIKGGGGSGGGGSGGGGSGGGGSGGGGSDIVMTQAPLSLPVSLGDQASISCRSSQSIVHSNGNTYLEWYLQKPGQSPKLLIYKVSNRFSGVPDRFSGSGSGTDFTLKISRVEAEDLGIYYCFQGSHVPPTFGGGTKLEIKRTVAAPSVFIFPPSDEQLKSGTASVVCLLNNFYPREAKVQWKVDNALQSGNSQESVTEQDSKDSTYSLSSTLTLSKADYEKHKVYACEVTHQGLSSPVTKSFNRGEC
notes: also called Gen 2A construct #6; VH first
Regarding B2, the binding result in assay [2] is “binds”.

B3: 2A-3 #12 (bispecific antibody, human IgG1, kappa)
heavy: not shown
chain: DIVMTQAPLSLPVSLGDQASISCRSSQSIVHSNGNTYLEWYLQKPGQSPKLLIYKVSNRFSGVPDRFSGSGSGTDFTLKISRVEAEDLGIYYCFQGSHVPPTFGGGTKLEIKRTVAAPSVFIFPPSDEQLKSGTASVVCLLNNFYPREAKVQWKVDNALQSGNSQESVTEQDSKDSTYSLSSTLTLSKADYEKHKVYACEVTHQGLSSPVTKSFNRGECGGGGSGGGGSDIQMTQSPSSVSASVGDRVTITCKSSQSLLYSTNQKNYLAWYQQKPGKAPKLLIYWASTRESGVPSRFSGSGSGTDFTLTISSLQPEDFATYYCQQYFIYPRTFGQGTKVEIKGGGGSGGGGSGGGGSEVQLVQSGAEVKKPGSSVKVSCKASGYIFTDYNMDWVRQAPGQGLEWIGDINPDADTTSYNEKFKGRATLTVDKSTSTAYMELSSLRSEDTAVYYCARGGYSGSSYYHPMDYWGQGTLVTVSSGGGGSGGGGSGGGGSGGGGSGGGGSDIVMTQAPLSLPVSLGDQASISCRSSQSIVHSNGNTYLEWYLQKPGQSPKLLIYKVSNRFSGVPDRFSGSGSGTDFTLKISRVEAEDLGIYYCFQGSHVPPTFGGGTKLEIKRTVAAPSVFIFPPSDEQLKSGTASVVCLLNNFYPREAKVQWKVDNALQSGNSQESVTEQDSKDSTYSLSSTLTLSKADYEKHKVYACEVTHQGLSSPVTKSFNRGEC
notes: also called Gen 2A construct #12; VL first
As to B3, the binding result in assay [1] was “binds”.

B4: 2A-3 #8 (bispecific antibody, human IgG1, kappa)
heavy: not shown
chain: DIVMTQAPLSLPVSLGDQASISCRSSQSIVHSNGNTYLEWYLQKPGQSPKLLIYKVSNRFSGVPDRFSGSGSGTDFTLKISRVEAEDLGIYYCFQGSHVPPTFGGGTKLEIKRTVAAPSVFIFPPSDEQLKSGTASVVCLLNNFYPREAKVQWKVDNALQSGNSQESVTEQDSKDSTYSLSSTLTLSKADYEKHKVYACEVTHQGLSSPVTKSFNRGECGGGGSDIQMTQSPSSVSASVGDRVTITCKSSQSLLYSTNQKNYLAWYQQKPGKAPKLLIYWASTRESGVPSRFSGSGSGTDFTLTISSLQPEDFATYYCQQYFIYPRTFGQGTKVEIKGGGGSGGGGSGGGGSEVQLVQSGAEVKKPGSSVKVSCKASGYIFTDYNMDWVRQAPGQGLEWIGDINPDADTTSYNEKFKGRATLTVDKSTSTAYMELSSLRSEDTAVYYCARGGYSGSSYYHPMDYWGQGTLVTVSSGGGGSGGGGSGGGGSGGGGSDIVMTQAPLSLPVSLGDQASISCRSSQSIVHSNGNTYLEWYLQKPGQSPKLLIYKVSNRFSGVPDRFSGSGSGTDFTLKISRVEAEDLGIYYCFQGSHVPPTFGGGTKLEIKRTVAAPSVFIFPPSDEQLKSGTASVVCLLNNFYPREAKVQWKVDNALQSGNSQESVTEQDSKDSTYSLSSTLTLSKADYEKHKVYACEVTHQGLSSPVTKSFNRGEC
notes: also called Gen 2A construct #8; VL first
Regarding B4, the binding result in assay [2] was “binds”.

B5: 2A-3 #3 (bispecific antibody, human IgG1, kappa)
heavy: not shown
chain: DIVMTQAPLSLPVSLGDQASISCRSSQSIVHSNGNTYLEWYLQKPGQSPKLLIYKVSNRFSGVPDRFSGSGSGTDFTLKISRVEAEDLGIYYCFQGSHVPPTFGGGTKLEIKRTVAAPSVFIFPPSDEQLKSGTASVVCLLNNFYPREAKVQWKVDNALQSGNSQESVTEQDSKDSTYSLSSTLTLSKADYEKHKVYACEVTHQGLSSPVTKSFNRGECGGGGSGGGGSGGGGSEVQLVQSGAEVKKPGSSVKVSCKASGYIFTDYNMDWVRQAPGQGLEWIGDINPDADTTSYNEKFKGRATLTVDKSTSTAYMELSSLRSEDTAVYYCARGGYSGSSYYHPMDYWGQGTLVTVSSGGGGSGGGGSGGGGSDIQMTQSPSSVSASVGDRVTITCKSSQSLLYSTNQKNYLAWYQQKPGKAPKLLIYWASTRESGVPSRFSGSGSGTDFTLTISSLQPEDFATYYCQQYFIYPRTFGQGTKVEIKGGGGSGGGGSGGGGSGGGGSDIVMTQAPLSLPVSLGDQASISCRSSQSIVHSNGNTYLEWYLQKPGQSPKLLIYKVSNRFSGVPDRFSGSGSGTDFTLKISRVEAEDLGIYYCFQGSHVPPTFGGGTKLEIKRTVAAPSVFIFPPSDEQLKSGTASVVCLLNNFYPREAKVQWKVDNALQSGNSQESVTEQDSKDSTYSLSSTLTLSKADYEKHKVYACEVTHQGLSSPVTKSFNRGEC
notes: also called Gen 2A construct #3; VH first
As for B5, the binding result in assay [2] is listed as “binds”.

B6: 2A-3 #13 (bispecific antibody, human IgG1, kappa)
heavy: not shown
chain: DIVMTQAPLSLPVSLGDQASISCRSSQSIVHSNGNTYLEWYLQKPGQSPKLLIYKVSNRFSGVPDRFSGSGSGTDFTLKISRVEAEDLGIYYCFQGSHVPPTFGGGTKLEIKRTVAAPSVFIFPPSDEQLKSGTASVVCLLNNFYPREAKVQWKVDNALQSGNSQESVTEQDSKDSTYSLSSTLTLSKADYEKHKVYACEVTHQGLSSPVTKSFNRGECGGGGSGGGGSGGGGSDIQMTQSPSSVSASVGDRVTITCKSSQSLLYSTNQKNYLAWYQQKPGKAPKLLIYWASTRESGVPSRFSGSGSGTDFTLTISSLQPEDFATYYCQQYFIYPRTFGQGTKVEIKGGGGSGGGGSGGGGSEVQLVQSGAEVKKPGSSVKVSCKASGYIFTDYNMDWVRQAPGQGLEWIGDINPDADTTSYNEKFKGRATLTVDKSTSTAYMELSSLRSEDTAVYYCARGGYSGSSYYHPMDYWGQGTLVTVSSGGGGSGGGGSGGGGSGGGGSGGGGSDIVMTQAPLSLPVSLGDQASISCRSSQSIVHSNGNTYLEWYLQKPGQSPKLLIYKVSNRFSGVPDRFSGSGSGTDFTLKISRVEAEDLGIYYCFQGSHVPPTFGGGTKLEIKRTVAAPSVFIFPPSDEQLKSGTASVVCLLNNFYPREAKVQWKVDNALQSGNSQESVTEQDSKDSTYSLSSTLTLSKADYEKHKVYACEVTHQGLSSPVTKSFNRGEC
notes: also called Gen 2A construct #13; VL first
B6: the binding result in assay [1] was “binds”.

B7: 2A-3 #5 (bispecific antibody, human IgG1, kappa)
heavy: not shown
chain: DIVMTQAPLSLPVSLGDQASISCRSSQSIVHSNGNTYLEWYLQKPGQSPKLLIYKVSNRFSGVPDRFSGSGSGTDFTLKISRVEAEDLGIYYCFQGSHVPPTFGGGTKLEIKRTVAAPSVFIFPPSDEQLKSGTASVVCLLNNFYPREAKVQWKVDNALQSGNSQESVTEQDSKDSTYSLSSTLTLSKADYEKHKVYACEVTHQGLSSPVTKSFNRGECGGGGSGGGGSEVQLVQSGAEVKKPGSSVKVSCKASGYIFTDYNMDWVRQAPGQGLEWIGDINPDADTTSYNEKFKGRATLTVDKSTSTAYMELSSLRSEDTAVYYCARGGYSGSSYYHPMDYWGQGTLVTVSSGGGGSGGGGSGGGGSDIQMTQSPSSVSASVGDRVTITCKSSQSLLYSTNQKNYLAWYQQKPGKAPKLLIYWASTRESGVPSRFSGSGSGTDFTLTISSLQPEDFATYYCQQYFIYPRTFGQGTKVEIKGGGGSGGGGSGGGGSGGGGSGGGGSDIVMTQAPLSLPVSLGDQASISCRSSQSIVHSNGNTYLEWYLQKPGQSPKLLIYKVSNRFSGVPDRFSGSGSGTDFTLKISRVEAEDLGIYYCFQGSHVPPTFGGGTKLEIKRTVAAPSVFIFPPSDEQLKSGTASVVCLLNNFYPREAKVQWKVDNALQSGNSQESVTEQDSKDSTYSLSSTLTLSKADYEKHKVYACEVTHQGLSSPVTKSFNRGEC
notes: also called Gen 2A construct #5; VH first
For the molecule B7, in assay [2], the binding result is “binds”.

(Values after patent US20260274980A1 (BIOARCTIC, published 2026).)
